The values that follow come from patent publication US20090170126A1.

The target in assay [1] is commercially available anti-prostasin mouse monoclonal antibody (BD Biosciences, catalog No. 612173). The assay is described as follows: competitive immunoassay, commercial monoclonal antibody-immobilized plate; competitor POD-labeled recombinant full-length prostasin 6.4 µg/mL; unlabeled recombinant full-length prostasin 0 ng/mL.
The target is the same in assay [2]. Nature of the assay: competitive immunoassay, commercial monoclonal antibody-immobilized plate; competitor POD-labeled recombinant full-length prostasin 6.4 µg/mL; unlabeled recombinant full-length prostasin 5 ng/mL.
For assay [3] the target is unchanged. Nature of the assay: competitive immunoassay, commercial monoclonal antibody-immobilized plate; competitor POD-labeled recombinant full-length prostasin 6.4 µg/mL; unlabeled recombinant full-length prostasin 25 ng/mL.
For assay [4] the target is unchanged. The assay is described as follows: competitive immunoassay, commercial monoclonal antibody-immobilized plate; competitor POD-labeled recombinant full-length prostasin 6.4 µg/mL; unlabeled recombinant full-length prostasin 10 ng/mL.
Assay [5] shares this target. The assay is described as follows: competitive immunoassay, commercial monoclonal antibody-immobilized plate; competitor POD-labeled recombinant full-length prostasin 6.4 µg/mL; unlabeled recombinant full-length prostasin 100 ng/mL.
For assay [6] the target is unchanged. The assay is described as follows: competitive immunoassay, commercial monoclonal antibody-immobilized plate; competitor POD-labeled recombinant full-length prostasin 6.4 µg/mL; unlabeled recombinant full-length prostasin 50 ng/mL.
The target in assay [7] is affinity-purified antibody (c). Nature of the assay: competitive immunoassay, antibody (c)-immobilized plate; competitor POD-labeled partial peptide (c) 0.35 µg/mL; unlabeled peptide (c) 5 ng/mL.
Assay [8] has as its target affinity-purified antibody (c). The assay is described as follows: competitive immunoassay, antibody (c)-immobilized plate; competitor POD-labeled partial peptide (c) 0.35 µg/mL; unlabeled peptide (c) 0 ng/mL.
For assay [9], the target named is affinity-purified antibody (c). The assay is described as follows: competitive immunoassay, antibody (c)-immobilized plate; competitor POD-labeled partial peptide (c) 0.35 µg/mL; unlabeled peptide (c) 100 ng/mL.
Assay [10] concerns the target affinity-purified antibody (c). The assay is described as follows: competitive immunoassay, antibody (c)-immobilized plate; competitor POD-labeled partial peptide (c) 0.35 µg/mL; unlabeled peptide (c) 25 ng/mL.
Assay [11] concerns the target affinity-purified antibody (c). Nature of the assay: competitive immunoassay, antibody (c)-immobilized plate; competitor POD-labeled partial peptide (c) 0.35 µg/mL; unlabeled peptide (c) 10 ng/mL.
For assay [12], the target named is affinity-purified antibody (c). The assay is described as follows: competitive immunoassay, antibody (c)-immobilized plate; competitor POD-labeled partial peptide (c) 0.35 µg/mL; unlabeled peptide (c) 50 ng/mL.
Assay [13] addresses affinity-purified antibody (a). The assay is described as follows: antibody (a)-immobilized plate; POD-labeled peptide (a) 0.15 µg/mL; competitor unlabeled partial peptide (a) 50 ng/mL.
The target in assay [14] is affinity-purified antibody (a). Nature of the assay: antibody (a)-immobilized plate; POD-labeled peptide (a) 0.20 µg/mL; competitor unlabeled partial peptide (a) 50 ng/mL.
Assay [15] addresses affinity-purified antibody (a). Nature of the assay: antibody (a)-immobilized plate; POD-labeled peptide (a) 0.25 µg/mL; competitor unlabeled partial peptide (a) 50 ng/mL.
Assay [16] deals with affinity-purified antibody (a). The assay is described as follows: antibody (a)-immobilized plate; POD-labeled peptide (a) 0.025 µg/mL; unlabeled partial peptide (a) 0 ng/mL.
Assay [17] has as its target affinity-purified antibody (a). Nature of the assay: difference of absorbance between 0 and 50 ng/mL unlabeled partial peptide (a); antibody (a)-immobilized plate; POD-labeled peptide (a) 0.15 µg/mL.
In assay [18] the target is affinity-purified antibody (a). The assay is described as follows: antibody (a)-immobilized plate; POD-labeled peptide (a) 0.025 µg/mL; competitor unlabeled partial peptide (a) 50 ng/mL.
In assay [19] the target is affinity-purified antibody (a). Nature of the assay: difference of absorbance between 0 and 50 ng/mL unlabeled partial peptide (a); antibody (a)-immobilized plate; POD-labeled peptide (a) 0.05 µg/mL.
The target in assay [20] is affinity-purified antibody (a). The assay is described as follows: antibody (a)-immobilized plate; POD-labeled peptide (a) 0.20 µg/mL; unlabeled partial peptide (a) 0 ng/mL.
The target of assay [21] is affinity-purified antibody (a). The assay is described as follows: antibody (a)-immobilized plate; POD-labeled peptide (a) 0.10 µg/mL; unlabeled partial peptide (a) 0 ng/mL.
Assay [22] concerns the target affinity-purified antibody (a). Nature of the assay: antibody (a)-immobilized plate; POD-labeled peptide (a) 0.05 µg/mL; unlabeled partial peptide (a) 0 ng/mL.
Assay [23] has as its target affinity-purified antibody (a). Nature of the assay: difference of absorbance between 0 and 50 ng/mL unlabeled partial peptide (a); antibody (a)-immobilized plate; POD-labeled peptide (a) 0.25 µg/mL.
Assay [24] addresses affinity-purified antibody (a). The assay is described as follows: antibody (a)-immobilized plate; POD-labeled peptide (a) 0.05 µg/mL; competitor unlabeled partial peptide (a) 50 ng/mL.
The target of assay [25] is affinity-purified antibody (a). Nature of the assay: difference of absorbance between 0 and 50 ng/mL unlabeled partial peptide (a); antibody (a)-immobilized plate; POD-labeled peptide (a) 0.20 µg/mL.
Assay [26] deals with affinity-purified antibody (a). Nature of the assay: difference of absorbance between 0 and 50 ng/mL unlabeled partial peptide (a); antibody (a)-immobilized plate; POD-labeled peptide (a) 0.10 µg/mL.
Assay [27] deals with affinity-purified antibody (a). The assay is described as follows: antibody (a)-immobilized plate; POD-labeled peptide (a) 0.15 µg/mL; unlabeled partial peptide (a) 0 ng/mL.
Assay [28] has as its target affinity-purified antibody (a). Nature of the assay: antibody (a)-immobilized plate; POD-labeled peptide (a) 0.25 µg/mL; unlabeled partial peptide (a) 0 ng/mL.
Assay [29] has as its target affinity-purified antibody (a). The assay is described as follows: antibody (a)-immobilized plate; POD-labeled peptide (a) 0.10 µg/mL; competitor unlabeled partial peptide (a) 50 ng/mL.
The target in assay [30] is affinity-purified antibody (a). Nature of the assay: difference of absorbance between 0 and 50 ng/mL unlabeled partial peptide (a); antibody (a)-immobilized plate; POD-labeled peptide (a) 0.025 µg/mL.
Assay [31] has as its target affinity-purified antibody (e). The assay is described as follows: competitive immunoassay, antibody (e)-immobilized plate; competitor POD-labeled partial peptide (e) 0.30 µg/mL; unlabeled peptide (e) 50 ng/mL.
Assay [32] deals with affinity-purified antibody (e). Nature of the assay: competitive immunoassay, antibody (e)-immobilized plate; competitor POD-labeled partial peptide (e) 0.30 µg/mL; unlabeled peptide (e) 10 ng/mL.
The target of assay [33] is affinity-purified antibody (e). Nature of the assay: competitive immunoassay, antibody (e)-immobilized plate; competitor POD-labeled partial peptide (e) 0.30 µg/mL; unlabeled peptide (e) 25 ng/mL.
The target of assay [34] is affinity-purified antibody (e). The assay is described as follows: competitive immunoassay, antibody (e)-immobilized plate; competitor POD-labeled partial peptide (e) 0.30 µg/mL; unlabeled peptide (e) 100 ng/mL.
Assay [35] addresses affinity-purified antibody (e). The assay is described as follows: competitive immunoassay, antibody (e)-immobilized plate; competitor POD-labeled partial peptide (e) 0.30 µg/mL; unlabeled peptide (e) 0 ng/mL.
For assay [36], the target named is affinity-purified antibody (e). The assay is described as follows: competitive immunoassay, antibody (e)-immobilized plate; competitor POD-labeled partial peptide (e) 0.30 µg/mL; unlabeled peptide (e) 5 ng/mL.

Ends that are not written are not given here.

For the molecule “recombinant protein of full-length prostasin (prepared according to the method of Chen, L-M. et al., J. Biol. Chem., Vol. 276, pp. 21434-21442, 2001) (from UniProt Q16651 33-322) (enzyme)”, the absorbance (Abs) stood at 1.18 Abs in assay [1]; 1.21 Abs in assay [2]; 1.12 Abs in assay [3]; 1.19 Abs in [4]; 1.22 Abs in assay [5]; 1.09 Abs in assay [6].

For NCLYNIDAKPEEPHFVQED [partial peptide (c) of prostasin], the absorbance (Abs) in assay [7] stood at 1.08 Abs; in [8], 1.09 Abs; in [9], 0.943 Abs; in assay [10], 1.12 Abs; in [11], 1.11 Abs; in [12] it was 0.938 Abs.

For AHQLDSYSEDAKVSTLKDI (also: peroxidase (POD) label, attachment site not given here) [POD-labeled partial peptide (a)], the absorbance (Abs) in assay [13] is 1.25 Abs; in assay [14], 1.5 Abs; in [15], 1.99 Abs; in assay [16] it was 0.418 Abs; in assay [18], 0.231 Abs; in [20], 2.4 Abs. For the same molecule, the absorbance (Abs) worked out at 1.41 Abs in assay [21]; 0.815 Abs in assay [22]; 0.477 Abs in assay [24]; 2.04 Abs in assay [27]; 2.91 Abs in [28]; 0.809 Abs in [29]. The ΔOD [absorbance (Abs)] in [17] was 0.79 Abs; in [19], 0.338 Abs; in [23], 0.925 Abs; in assay [25], 0.901 Abs; in assay [26], 0.596 Abs; in assay [30], 0.187 Abs.

As to PQTQESQPDSN [partial peptide (e) of prostasin], the absorbance (Abs) is 1.41 Abs in assay [31]; 1.62 Abs in assay [32]; 1.55 Abs in assay [33]; 1.49 Abs in assay [34]; 1.97 Abs in [35]; 1.96 Abs in assay [36].
